{
  "source": "paper PMC7337902",
  "biological_target": "HRP2 (hepatoma-derived growth factor-related protein 2) IBD (UniProt Q7Z4V5)",
  "sequence (Q7Z4V5 whole entry, looked up)": "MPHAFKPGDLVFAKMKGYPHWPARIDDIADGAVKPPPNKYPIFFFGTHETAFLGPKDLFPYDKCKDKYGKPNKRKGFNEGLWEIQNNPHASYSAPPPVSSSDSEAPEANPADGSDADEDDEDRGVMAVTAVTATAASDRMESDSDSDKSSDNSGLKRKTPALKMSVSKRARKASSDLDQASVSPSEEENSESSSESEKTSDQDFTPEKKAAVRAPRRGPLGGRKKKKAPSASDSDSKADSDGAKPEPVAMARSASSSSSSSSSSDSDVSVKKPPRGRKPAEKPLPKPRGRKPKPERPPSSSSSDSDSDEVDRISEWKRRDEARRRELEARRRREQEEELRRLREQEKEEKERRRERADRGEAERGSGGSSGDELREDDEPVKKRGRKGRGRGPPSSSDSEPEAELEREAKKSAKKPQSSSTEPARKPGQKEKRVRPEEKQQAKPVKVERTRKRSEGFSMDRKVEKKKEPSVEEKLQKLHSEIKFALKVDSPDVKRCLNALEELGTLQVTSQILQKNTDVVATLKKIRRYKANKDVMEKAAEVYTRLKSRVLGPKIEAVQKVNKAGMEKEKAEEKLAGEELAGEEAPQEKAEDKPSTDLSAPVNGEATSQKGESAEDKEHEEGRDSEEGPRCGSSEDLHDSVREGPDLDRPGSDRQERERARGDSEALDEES",
  "test": "biotin-peptide streptavidin pull-down, GST blot",
  "settings": "reference: unphosphorylated IBM peptide; sites S323",
  "data": [
    {"substance": "DPF3a (BAF45c) IBM peptide (from UniProt Q92784-2) pS323 IBM peptide", "values": [
      {"measurement": "binding against the reference", "value": "stronger"}
    ]}
  ]
}
